We go through six molecules from US20260209789A1, “TRIGGER-INDUCIBLE MRNA CIRCULARIZATION” (WESTLAKE UNIVERSITY, priority 2022, published 2026).

Test [1] deals with endogenous RNA (GAPDH). The experiment in a line: RIP-qPCR: endogenous RNA binding of PABP- and NSP3-fusion proteins. On the set-up: species or system human. As to conditions: 3×FLAG-tagged L7Ae-NSP3 vs PABP-L7Ae, 48 h. An excerpt: RNA immunoprecipitation (RIP)-qPCR.
(In general: Quantitative PCR measures a nucleic acid by following its amplification.)

Test [2] has as its target T1, (DocS)3 (Acetivibrio thermocellus, UniProt A3DH67).
T1 sequence (A3DH67 with tags, fused parts or gaps): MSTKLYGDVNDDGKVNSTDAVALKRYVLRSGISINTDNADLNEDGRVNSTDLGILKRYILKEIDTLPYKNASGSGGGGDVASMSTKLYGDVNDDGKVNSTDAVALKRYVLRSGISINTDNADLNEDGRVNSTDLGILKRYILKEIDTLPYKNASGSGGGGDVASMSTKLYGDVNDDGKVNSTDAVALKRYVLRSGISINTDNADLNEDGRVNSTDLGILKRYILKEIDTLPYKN
The test can be described thus: Coh2/DocS-based STIF protein sensor for cytosolic (DocS)3. As to conditions: different amounts of pSL244, 48 h.

Test [3] has as its system STIF-specific target gene mRNA. The test can be described thus: Translational regulation by constitutive bipartite STIF reconstitution (SEAP, NanoLuc) in HEK-293 cells. In kind it is cell-based, human. Particulars: 48 h. An excerpt:
FIG. 8. Translational regulation by spontaneous assembly of bipartite STIFs. (A) Translational regulation through constitutive STIF reconstitution. […] Transfection of pcDNA3.1 (+) instead of NSP3-fusion proteins was used as a negative control. […] (B) Compatibility of STIF-mediated translational regulation with split-complementation approaches. […] For (−) conditions, pcDNA3.1 (+) was transfected instead of expression vectors.
FIG. 9. Translational regulation through constitutive Coh2/DocS-mediated STIF reconstitution. (A) Site-specific translational activation by eIFBP overexpression. HEK-293 cells were (co-) transfected with an expression vector for SEAP-mRNA containing 24 tandem C/D-box-(left panel, pSL355) or MS2-box repeats in the 3′-UTR (right panel, pSL468), constitutive expression vectors for L7Ae (left) or MCP (right) fused to Coh2 (L7Ae-Coh2, pSL83; MCP-Coh2, pSL674) or EGFP (L7Ae-EGFP, pSL1078; MCP-EGFP, pSL435) and constitutive expression vectors for various chimeric Coh2-specific DocS-containing eIFBP fusions (PABP-DocS, pSL47; DocS-eIF4G, pSL87; DocS-eIF4E, pLZ312; DocS-NSP3, pSL66; DocS-VPg, pLZ311). Transfection of pcDNA3.1 (+) instead of DocS- or MCP-expressing vectors was used as a negative control. […] SEAP (left) and NanoLuc levels in culture supernatants (right) were quantified at 48 h post-transfection. […]

Test [4] relates to BCR-ABL. The experiment in a line: Co-immunoprecipitation: BCR-ABL-mediated association of STIF components. The format is binding, human. Particulars: HEK-293 cells, 48 h.
BCR-ABL, sequence (as listed by the source): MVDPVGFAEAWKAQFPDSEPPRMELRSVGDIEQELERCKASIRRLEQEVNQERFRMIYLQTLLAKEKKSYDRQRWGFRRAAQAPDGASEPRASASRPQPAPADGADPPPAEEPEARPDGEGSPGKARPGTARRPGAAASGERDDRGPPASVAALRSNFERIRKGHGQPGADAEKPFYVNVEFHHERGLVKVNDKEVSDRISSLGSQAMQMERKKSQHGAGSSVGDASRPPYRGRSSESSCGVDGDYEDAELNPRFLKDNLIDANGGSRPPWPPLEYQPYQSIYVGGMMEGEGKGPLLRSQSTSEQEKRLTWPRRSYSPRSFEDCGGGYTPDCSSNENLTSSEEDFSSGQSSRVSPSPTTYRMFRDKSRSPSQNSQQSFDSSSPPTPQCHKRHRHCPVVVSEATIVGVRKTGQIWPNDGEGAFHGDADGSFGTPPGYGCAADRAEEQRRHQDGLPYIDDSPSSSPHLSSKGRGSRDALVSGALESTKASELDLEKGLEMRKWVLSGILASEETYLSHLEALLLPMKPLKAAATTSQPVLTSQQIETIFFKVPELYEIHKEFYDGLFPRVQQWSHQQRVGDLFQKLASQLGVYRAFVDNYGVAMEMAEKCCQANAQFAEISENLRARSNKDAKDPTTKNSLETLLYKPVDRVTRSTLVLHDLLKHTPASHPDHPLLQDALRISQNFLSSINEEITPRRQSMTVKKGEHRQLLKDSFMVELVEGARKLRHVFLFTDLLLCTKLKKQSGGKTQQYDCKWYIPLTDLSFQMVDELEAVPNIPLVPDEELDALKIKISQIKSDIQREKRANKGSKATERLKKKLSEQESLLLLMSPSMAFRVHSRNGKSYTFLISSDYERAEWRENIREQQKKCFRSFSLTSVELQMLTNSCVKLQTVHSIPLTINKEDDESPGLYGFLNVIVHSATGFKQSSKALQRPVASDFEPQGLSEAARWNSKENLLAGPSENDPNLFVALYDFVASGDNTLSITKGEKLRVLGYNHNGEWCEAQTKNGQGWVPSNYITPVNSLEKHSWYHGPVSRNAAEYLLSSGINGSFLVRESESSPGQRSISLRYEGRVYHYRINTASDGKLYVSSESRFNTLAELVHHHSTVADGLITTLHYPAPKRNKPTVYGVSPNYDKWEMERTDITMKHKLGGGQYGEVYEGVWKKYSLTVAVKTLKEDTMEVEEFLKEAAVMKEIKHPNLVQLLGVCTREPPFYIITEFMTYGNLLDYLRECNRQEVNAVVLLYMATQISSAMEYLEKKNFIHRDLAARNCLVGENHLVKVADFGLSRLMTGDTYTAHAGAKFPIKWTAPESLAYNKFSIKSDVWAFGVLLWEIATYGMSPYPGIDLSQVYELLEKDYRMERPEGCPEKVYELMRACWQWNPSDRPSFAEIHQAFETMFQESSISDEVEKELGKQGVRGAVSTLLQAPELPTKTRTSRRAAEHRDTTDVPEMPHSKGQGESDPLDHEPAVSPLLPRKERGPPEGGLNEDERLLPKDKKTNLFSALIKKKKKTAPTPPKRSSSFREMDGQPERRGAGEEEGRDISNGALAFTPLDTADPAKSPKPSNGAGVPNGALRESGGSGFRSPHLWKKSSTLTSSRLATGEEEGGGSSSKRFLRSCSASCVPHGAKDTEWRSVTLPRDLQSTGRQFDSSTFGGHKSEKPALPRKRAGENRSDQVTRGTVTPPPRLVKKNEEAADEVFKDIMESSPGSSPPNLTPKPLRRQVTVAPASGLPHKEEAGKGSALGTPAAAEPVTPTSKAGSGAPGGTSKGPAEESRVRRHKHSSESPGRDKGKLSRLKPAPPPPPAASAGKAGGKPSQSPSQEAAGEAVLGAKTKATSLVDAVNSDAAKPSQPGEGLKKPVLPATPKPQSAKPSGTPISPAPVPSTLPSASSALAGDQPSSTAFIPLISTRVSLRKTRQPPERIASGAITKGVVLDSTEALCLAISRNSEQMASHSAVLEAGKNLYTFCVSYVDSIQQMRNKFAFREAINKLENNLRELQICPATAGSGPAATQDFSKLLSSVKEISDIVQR
The subject of test [5] is nNS3. As to conditions: different amounts of overexpressed nNS3, 48 h.
In test [6] the test system is GNCR: NS3a system. The experiment in a line: Grazoprevir-inducible SEAP translation in HEK-293 cells (fold-change, dose-dependence, kinetics vs transcriptional switch). As to conditions: three tandem GNCR and NS3a repeats.
Description: Optimization of an L7Ae-based grazoprevir-inducible gene switch. (A) Translational regulation by grazoprevir-dependent STIF association. […] (B) Translational regulation by different grazoprevir-dependent NSP3-fusion proteins. […] (C) Translational regulation by different grazoprevir-dependent L7Ae-fusion proteins.
Optimized L7Ae- and MCP-based grazoprevir-inducible gene switch in mammalian cells. (A) Optimized grazoprevir-inducible regulation of SEAP translation. […] (B, C) Dose-dependent grazoprevir-inducible SEAP expression.
Comparative analysis of gene switches based on STIF-based translation and state-of-the-art transcription-centered designs. (A) Kinetics of grazoprevir-inducible SEAP expression. […] (B) Endpoint performance of grazoprevir-induced translational and transcriptional gene switch switches.

B1: NSP3: rotaviral non-structural protein 3 (protein)
chain: LKMESTQQMASSIINTSFEAAVVAATSTLELMGIQYDYNEVYTRVKSKFDYVMDDSGVKNNLLGKAATIDQALNGKFGSAARNRNWMADTRTTARLDEDVNKLRMMLSSKGIDQKMRVLNACFNVKRVPGKSSSIIKCTRLMRDKIERGEVEVDDSFVEEKMEVDTIDWKSRYEQLEKRFESLKQRVNEKYTSWVQKAKKVNENMYSLQNVISQQQSQIADLQNYCNKLEVDLQNKISSLVSSVEWYLKSMELPDEIKTDIEQQLNSIDVINPINAIDDFESLIRNIILDYDRIFLMFKGLMRQCNYEYTYE
Consider B1, for which the “non-specific binding to endogenous RNA (GAPDH RNA IP/input)” value in test [1] is given as “much less non-specific binding to endogenous RNA than PABP”.

B2: (Coh2)3-NSP3: bipartite STIF regulator (protein)
chain: MVVVEIGKVTGSVGTTVEIPVYFRGVPSKGIANCDFVFRYDPNVLEIIGIDPGDIIVDPNPTKSFDTAIYPDRKIIVFLFAEDSGTGAYAITKDGVFAKIRATVKSSAPGYITFDEVGGFADNDLVEQKVSFIDGGVNVASGSGGGGDVASVVVEIGKVTGSVGTTVEIPVYFRGVPSKGIANCDFVFRYDPNVLEIIGIDPGDIIVDPNPTKSFDTAIYPDRKIIVFLFAEDSGTGAYAITKDGVFAKIRATVKSSAPGYITFDEVGGFADNDLVEQKVSFIDGGVNVASGSGGGGDVASVVVEIGKVTGSVGTTVEIPVYFRGVPSKGIANCDFVFRYDPNVLEIIGIDPGDIIVDPNPTKSFDTAIYPDRKIIVFLFAEDSGTGAYAITKDGVFAKIRATVKSSAPGYITFDEVGGFADNDLVEQKVSFIDGGVNVASGSGGGGDVASMLKMESTQQMASSIINTSFEAAVVAATSTLELMGIQYDYNEVYTRVKSKFDYVMDDSGVKNNLLGKAATIDQALNGKFGSAARNRNWMADTRTTARLDEDVNKLRMMLSSKGIDQKMRVLNACFNVKRVPGKSSSIIKCTRLMRDKIERGEVEVDDSFVEEKMEVDTIDWKSRYEQLEKRFESLKQRVNEKYTSWVQKAKKVNENMYSLQNVISQQQSQIADLQNYCNKLEVDLQNKISSLVSSVEWYLKSMELPDEIKTDIEQQLNSIDVINPINAIDDFESLIRNIILDYDRIFLMFKGLMRQCNYEYTYE
Consider B2, for which the “detection of cytosolic (DocS)3 (SEAP)” value in test [2] is given as “in a dose-dependent manner”.

B3: (DocS)3-NSP3: bipartite STIF regulator (protein)
chain: MSTKLYGDVNDDGKVNSTDAVALKRYVLRSGISINTDNADLNEDGRVNSTDLGILKRYILKEIDTLPYKNASGSGGGGDVASMSTKLYGDVNDDGKVNSTDAVALKRYVLRSGISINTDNADLNEDGRVNSTDLGILKRYILKEIDTLPYKNASGSGGGGDVASMSTKLYGDVNDDGKVNSTDAVALKRYVLRSGISINTDNADLNEDGRVNSTDLGILKRYILKEIDTLPYKNASGSGGGGDVASMLKMESTQQMASSIINTSFEAAVVAATSTLELMGIQYDYNEVYTRVKSKFDYVMDDSGVKNNLLGKAATIDQALNGKFGSAARNRNWMADTRTTARLDEDVNKLRMMLSSKGIDQKMRVLNACFNVKRVPGKSSSIIKCTRLMRDKIERGEVEVDDSFVEEKMEVDTIDWKSRYEQLEKRFESLKQRVNEKYTSWVQKAKKVNENMYSLQNVISQQQSQIADLQNYCNKLEVDLQNKISSLVSSVEWYLKSMELPDEIKTDIEQQLNSIDVINPINAIDDFESLIRNIILDYDRIFLMFKGLMRQCNYEYTYE
Consider B3, for which the “target gene translation by spontaneous STIF assembly (SEAP)” value in test [3] was “modular and effective translational regulation”.

B4: CCmut3-NSP3: bipartite STIF regulator (protein)
chain: MVDPVGFAEAWKAQFPDSEPPRMELRSVGDIEQELERAEARIRRNEQRVNQERFRMIYLETLLAKEKKSYDRASGSGGGGDVASMLKMESTQQMASSIINTSFEAAVVAATSTLELMGIQYDYNEVYTRVKSKFDYVMDDSGVKNNLLGKAATIDQALNGKFGSAARNRNWMADTRTTARLDEDVNKLRMMLSSKGIDQKMRVLNACFNVKRVPGKSSSIIKCTRLMRDKIERGEVEVDDSFVEEKMEVDTIDWKSRYEQLEKRFESLKQRVNEKYTSWVQKAKKVNENMYSLQNVISQQQSQIADLQNYCNKLEVDLQNKISSLVSSVEWYLKSMELPDEIKTDIEQQLNSIDVINPINAIDDFESLIRNIILDYDRIFLMFKGLMRQCNYEYTYE
In the case of B4, in test [4], the “assembly of STIF components upon BCR-ABL overexpression (co-IP)” value is listed as “triggers assembly”.

B5: (scFv162)3-NSP3: bipartite STIF regulator (protein)
chain: MAEVQVQQSGAELVRSGASVKLSCTASGFNIKDYYMHWVKQRPEQGLEWIGWIDPANGNTKYDPKFQGKATITADTSSNTAYLQLSSLTSEDTAVYYCARWDWYFDVWGAGTTVTVSSGGGGSGGGGSGGGGSVFASGSGGGGDVASMAEVQVQQSGAELVRSGASVKLSCTASGFNIKDYYMHWVKQRPEQGLEWIGWIDPANGNTKYDPKFQGKATITADTSSNTAYLQLSSLTSEDTAVYYCARWDWYFDVWGAGTTVTVSSGGGGSGGGGSGGGGSVFASGSGGGGDVASMAEVQVQQSGAELVRSGASVKLSCTASGFNIKDYYMHWVKQRPEQGLEWIGWIDPANGNTKYDPKFQGKATITADTSSNTAYLQLSSLTSEDTAVYYCARWDWYFDVWGAGTTVTVSSGGGGSGGGGSGGGGSVFASGSGGGGDVASMLKMESTQQMASSIINTSFEAAVVAATSTLELMGIQYDYNEVYTRVKSKFDYVMDDSGVKNNLLGKAATIDQALNGKFGSAARNRNWMADTRTTARLDEDVNKLRMMLSSKGIDQKMRVLNACFNVKRVPGKSSSIIKCTRLMRDKIERGEVEVDDSFVEEKMEVDTIDWKSRYEQLEKRFESLKQRVNEKYTSWVQKAKKVNENMYSLQNVISQQQSQIADLQNYCNKLEVDLQNKISSLVSSVEWYLKSMELPDEIKTDIEQQLNSIDVINPINAIDDFESLIRNIILDYDRIFLMFKGLMRQCNYEYTYE
As to B5, the “activation of translation of L7Ae-specific target mRNA (SEAP)” value in test [5] is reported as “in a strict nNS3-dependent manner”.

B6: (GNCR)3-NSP3: trigger-inducible STIF regulator (protein)
chain: MDIEKLCKKAEEEAKEAQEKADELRQRHPDSQAAEDAEDLANLAVAAVLTACLLAQEHPNADIAKLCIKAASEAAEAASKAAELAQRHPDSQAARDAIKLASQAARAVILAIMLAAENPNADIAKLCIKAASEAAEAASKAAELAQRHPDSQAARDAIKLASQAAEAVERAIWLAAENPNADIAKKCIKAASEAAEEASKAAEEAQRHPDSQKARDEIKEASQKAEEVKERCKSASGSGGGGDVASDIEKLCKKAEEEAKEAQEKADELRQRHPDSQAAEDAEDLANLAVAAVLTACLLAQEHPNADIAKLCIKAASEAAEAASKAAELAQRHPDSQAARDAIKLASQAARAVILAIMLAAENPNADIAKLCIKAASEAAEAASKAAELAQRHPDSQAARDAIKLASQAAEAVERAIWLAAENPNADIAKKCIKAASEAAEEASKAAEEAQRHPDSQKARDEIKEASQKAEEVKERCKSASGSGGGGDVASDIEKLCKKAEEEAKEAQEKADELRQRHPDSQAAEDAEDLANLAVAAVLTACLLAQEHPNADIAKLCIKAASEAAEAASKAAELAQRHPDSQAARDAIKLASQAARAVILAIMLAAENPNADIAKLCIKAASEAAEAASKAAELAQRHPDSQAARDAIKLASQAAEAVERAIWLAAENPNADIAKKCIKAASEAAEEASKAAEEAQRHPDSQKARDEIKEASQKAEEVKERCKSASGSGGGGDVASMLKMESTQQMASSIINTSFEAAVVAATSTLELMGIQYDYNEVYTRVKSKFDYVMDDSGVKNNLLGKAATIDQALNGKFGSAARNRNWMADTRTTARLDEDVNKLRMMLSSKGIDQKMRVLNACFNVKRVPGKSSSIIKCTRLMRDKIERGEVEVDDSFVEEKMEVDTIDWKSRYEQLEKRFESLKQRVNEKYTSWVQKAKKVNENMYSLQNVISQQQSQIADLQNYCNKLEVDLQNKISSLVSSVEWYLKSMELPDEIKTDIEQQLNSIDVINPINAIDDFESLIRNIILDYDRIFLMFKGLMRQCNYEYTYE
Take B6: the “regulation performance (fold-change, dose-dependence, activation kinetics)” value in test [6] was “best regulation performance”.
